In article PMC4232992:

Target: Human myeloma IgG1 carbamylated with 0.1 M KCNO for 3 h, heat-aggregated (human)
Experiment: ELISA

C1q, the first component of the classical complement pathway (complex)
percent decrease in the deposition of C1q against native IgG1: 60%
